From publication doi:10.1101/2025.05.09.649859

What was measured:
Settings in all cases: 25 mM Tris-HCl pH 7.5, 2 mM MgCl2, 100 mM KCl (FP, 21 C) or 100-400 mM KCl (BLI, IgG on Protein A, 25 C)
J2 IgG [1] = experiment: fluorescence polarization
J2 IgG [2] = experiment: competition FP
J2 IgG [3] = experiment: BLI
J2 IgG HC Y54F = experiment: BLI
J2 IgG HC Y54A = experiment: BLI
J2 IgG LC Y38F = experiment: BLI
J2 IgG HC Y50F = experiment: BLI
J2 IgG HC A30P = experiment: BLI
J2 IgG LC Y31F = experiment: BLI
J2 IgG LC Y31A = experiment: BLI
J2 IgG HC Y52F = experiment: BLI

GGCAAGGGUAUCAUGGCGGACGACCGGGGUUCGAACCCCGGAUCCGGCCGUCCGCCGUGAUCCAUGCGGUUACCGCCCGCGUGUCGAACCCAGGUGUGCC [VA-I RNA]
Kd (J2 IgG [1]): 32 nM

GUUGUAAAGAAGGUCAAUAUUGUACCAAACUUGAUGGAAAAGAACAACGU / ACGUUGUUCUUUUCCAUCAAGUUUGGUACAAUAUUGACCUUCUUUACAAC [50-bp dsRNA]
IC50 (J2 IgG [2]): 17 nM
Kd (J2 IgG [3]): 22 nM

GUUGUAAAGAAGGUCAAUAU / AUAUUGACCUUCUUUACAAC [20-bp dsRNA]
Kd (J2 IgG HC Y54F): 710 nM
Kd (J2 IgG HC Y54A): 300 nM
Kd (J2 IgG LC Y38F): 150 nM
Kd (J2 IgG HC Y50F): 430 nM
Kd (J2 IgG HC A30P): 120 nM
Kd (J2 IgG LC Y31F): 360 nM
Kd (J2 IgG LC Y31A): 940 nM
Kd (J2 IgG HC Y52F): 220 nM
Kd (J2 IgG [3]): 120 nM

GUUGUAAAGAAGGU / ACCUUCUUUACAAC [14-bp dsRNA]
Kd (J2 IgG [3]): 2100 nM

GUUGUAAAGAAGGUCAAUAUUGUACCAAAC / GUUUGGUACAAUAUUGACCUUCUUUACAAC [30-bp dsRNA]
Kd (J2 IgG [3]): 12 nM

GUUGUAAAGAAGGUCAAUAUUGUACCAAACUUGAUGGAAA / UUUCCAUCAAGUUUGGUACAAUAUUGACCUUCUUUACAAC [40-bp dsRNA]
Kd (J2 IgG [3]): 80 nM
